Data: the nanobody polyreactivity screen of Harvey et al. (2022)

experiment: yeast display, Sf9 membrane polyspecificity reagent, FACS + sequencing; frameworks hold sequencing errors
How it was run: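 Synthetic nanobody libraries on Saccharomyces cerevisiae BJ5465 were galactose-induced for 36–48 hours, stained 1 hour at 4 °C with 10% biotinylated, detergent-solubilized Sf9 membrane reagent and enriched on streptavidin microbeads. FACS then separated cells into low and high (top ~1%) gates by anti-HA (expression) and streptavidin (reagent binding) fluorescence. Genes were colony-PCR amplified, MiSeq 2 × 250 sequenced and CDR-length filtered. A clone's polyreactivity label is that of its gate of origin.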

Sequence | polyreactivity (PSR sort gate)
QVQLVESGGGLVQAGGSLRLSCAASGIIFYDYAMGWYRQAPGKERELVAAISRSGSSTYYADSVKGRFTISRDNAKNTVYLQMNSLKPEDTAVYYCASRFGDMGYWGQGTQVTVSS | high polyreactivity
QVQLVESGGGLVQAGGSLRLSCAASGIIFYDYAMGWYRQAPGKERELVAAISTDAGSTYYADSVKGRFTISRDNAKNTVYLQMNCLKPEDTAVYYCNADELSYYVSWDYEYDYWGQGTQVTVSS | high polyreactivity
QVQLVESGGGLVQAGGSLRLSCAASGIIFYDYAMGWYRQAPGKERELVAAITSSGGSTYYADSVKGRFTISRDNAKNTVYLQMNSLKPEDTAVYYCAAATRGSGRRYDYWGQGTQVTVSS | high polyreactivity
QVQLVESGGGLVQAGGSLRLSCAASGIIFYGYAMGRYRQAPGKERELVAAITSSGRTYYADSVKGRFTISRDNAKNTVYLQMNSLKPEDTAVYFCNVLLQRVYGTAPSFDYWGQGTQVTVSS | high polyreactivity
QVQLVESGGGLVQAGGSLRLSCAASGIIFYGYAMGWYRQAPGKERELVAAISRSGGSTYYADSVKGRFTISRDNAKNTVYLQMNSLKPEDTAVYYCAAVRIRPLRYYYWGQGTQVTVSS | high polyreactivity
QVQLVESGGGLVQAGGSLRLSCAASGIIFYGYAMGWYRQAPGKERELVAAITYSGGSTYYADSVKGRFTISRDNAKNTVYLQMNSLKPEDTEVYYCAAYDAYSPYQALYDYWGQGTQVTVSS | low polyreactivity
QVQLVESGGGLVQAGGSLRLSCAASGIIFYLNAMGWYRQAPGKERELVAAISSSGGRTNYADSVKGRFTISRDNAKNSVYLQMNSLKPEDTAVYFCAAVITFYRYPPGETYYYWGQGTQVTVSS | high polyreactivity
QVQLVESGGGLVQAGGSLRLSCAASGIIFYLYAMGWYRQAPGKERELVAPITTGGRTNYADSVKGRFTISRDNAKNTVYLQMNSLKPEDTAVYYCAATHRGQGGYYWGQGTQVTVSS | low polyreactivity
QVQLVESGGGLVQAGGSLRLSCAASGIIFYRNTMGWYRQAPGKERELVASISRGGSTNYADSVKGRFTISRDNAKNTVYLQMNSLKPEDTAVYYCAAYTYIPLSYYRGYTMDYWGQGTQVTVSS | low polyreactivity
QVQLVESGGGLVQAGGSLRLSCAASGIIFYSSAMGWYRTAPGKERELVAAISWGGRTYYADSVKGRFTISRDNAKNTVYLQMNSLKPEDTAVYYCLNGRYWRRYDYWGQGTQVTVSS | high polyreactivity
QVQLVESGGGLVQAGGSLRLSCAASGIIFYSYAMGWYRQAPGKERELVATISFSGDNTYYADSVKGRFTISRDNAKNTVYLQMNSLKPEDTAVYYCAAASTYGGYYYSVSFEYWGQGTQVTVSS | low polyreactivity
QVQLVESGGGLVQAGGSLRLSCAASGIIFYYSAMGCYRQAPGKERELVAAISWSGGTTIYADSVKGRFTISLDNAKSTVYLQMNSLKPKDTAVYYCAAAFSPGWWSRHTYDYDYWGQGTQLTVSS | high polyreactivity
QVQLVESGGGLVQAGGSLRLSCAASGIIFYYYAMGGYRQAPGKEREFVAGIRWSSGSTYYADSVKGRFTISRDNAKNTVYLQMNSLKPEDTAVYYCAADSSGEYPGGYWGQGTQVTVSS | low polyreactivity
QVQLVESGGGLVQAGGSLRLSCAASGIIFYYYAMGWYRQAPGKERELVAAISTSGGRTYYADSVKGRFTISRDNAKNTVYLQMNSLKPEDTAVYYCNTKVISRTSERRGNGFTRYDYWGQGTQVTVSS | low polyreactivity
QVQLVESGGGLVQAGGSLRLSCAASGIIFYYYAMGWYRQAPGKERELVAGISYSGGSTYADSVKGRFTISRDNAKNTVYLQMNSLKPEDTAVYYCASDYDYGGHWYDYWGQGTQVTVSS | low polyreactivity
QVQLVESGGGLVQAGGSLRLSCAASGIIFYYYGMGWYSQAPGKERELVAAISTGGSTNYADSVKGRFTISRDNAKNTVYLQMNRLKPEDTAVYYCAVTYWWYYGYDYWGQGTQVTVSS | low polyreactivity
QVQLVESGGGLVQAGGSLRLSCAASGIIIDYNAMGWYRQAPGKERELVAAISSRGGSTYYADSVKGRFTISRDNAKNPVYFQMNSLKPEDTAVYYCAGRPDHQRYDYWGQGSQVTVSS | low polyreactivity
QVQLVESGGGLVQAGGSLRLSCAASGIIIDYYTMGWYRQAPGQERELVAAINKSGGSTYADSVKGRFTISRDNAKNTVYLQMNSLKPEDTAVYYCAAEVDYSYWPEYARKYYYWGQGTQVTVSS | low polyreactivity
QVQLVESGGGLVQAGGSLRLSCAASGIIIGGYAMGWYRQAPGKERELVADITWSGGSTTYADSVKGRFTISRDNAKNTVYLQMNSLKPEDTAVYYCAAEDYYIYREPYDYWGQGTQVTVSS | low polyreactivity
QVQLVESGGGLVQAGGSLRLSCAASGIIIRKYAMGWYRQAPGKERELVAAITTRGSRTYYADSVKGRFTISRDNAKNTVYLQMNSLKPEDTAVYYCAGDRYTVRMDYWGQGTQVTVSS | high polyreactivity
QVQLVESGGGLVQAGGSLRLSCAASGIIIRYYAMGWYRQAPGKERELVADITTGGTTYYADSVKGRFTISRDNAKNTVYLQMNCLKPEDTAVYYCAAYYFPTYSKTYIYPFDYWGQGTQVTVSS | low polyreactivity
QVQLVESGGGLVQAGGSLRLSCAASGIIIRYYAMGWYRQAPGKERELVADITTGGTTYYADSVKGRFTISRDNAKNTVYLQMNSLKPEDTAVYYCAAYYFPTYSKTYIYPFDYWGQGTQVTVSS | low polyreactivity

Sequence | polyreactivity (PSR sort gate)
QVQLVESGGGLVQAGGSLRLSCAASGIIISRYAMGWYRQAPGKERELVADISIGDSTNYADSVKGRFTISRDNAKNTVYLQMNSLKPEDTAVYYCAAGDYFYSYYYWGQGTQVTVSS | low polyreactivity
QVQLVESGGGLVQAGGSLRLSCAASGIIIVGNSMGWYRQAPGKQRELVASINSGGSTYYADSVKGRFTISRDNAKNTVYLQMNSLKPEDTAVYDCAVEEDRYYYDDYDYCGQGTQVTVSS | low polyreactivity
QVQLVESGGGLVQAGGSLRLSCAASGIILDHYAMGWYRQAPGKERELVAAISSGTRTNYADSVKGRFTISRDNAKNTVYLQMNSLKPEDTAVYYCAATIYRRYRSKSSITSYWGQGSQVTVSS | high polyreactivity
QVQLVESGGGLVQAGGSLRLSCAASGIILKYYAMGWNRQAPVKERELVAAITSSGDSTYYADSVKGRFTISRDNAKNTVYLQMNSLKPDDTAVYYCAALRFRGGQSTGRDRMDYWGQGTQVTVSS | high polyreactivity
QVQLVESGGGLVQAGGSLRLSCAASGIILPQNAMGWYRQAPGKERELVAAISKSGGRTYYADSVKGRFTISRDNAKNTVYLQMNSLKPEDTAVYYCAAVVRRAPEFDYWGQGTQVTVSS | high polyreactivity
QVQLVESGGGLVQAGGSLRLSCAASGIILSAYAMGWYRQAPGKERELVARISRSGGRTYYADSVKGRFTISRDNAKNTVYLQMNSLKPEDTAVYYCAADYTYGFGLYFGYGYWRQGTQVTVSS | high polyreactivity
QVQLVESGGGLVQAGGSLRLSCAASGIILSENAKGWYRQAPGKERELVAAITSSGSTNYADSVKGRLTISRDNAKNTVYLQMNSLKPVDTAVYYCATQNLYVSWYYAWYGYGYWGQGTQVNVSS | low polyreactivity
QVQLVESGGGLVQAGGSLRLSCAASGIILSPYAMGWYRQAPGKERELVAAISRSGGSTYYADSVKGRFTISRDNAKNTVYLQMNSLKPEDTAVYYCAAEYYGYWEYDYWGQGTQVTVSS | high polyreactivity
QVQLVESGGGLVQAGGSLRLSCAASGIILTPNAMGWYRQAPGTERELVAAIDWRDGITYYADSVKGRFTISRDNAKNTVYLQMNSLKPEDTAVYYCAATFSRGYDYWGQGTQVTVSS | high polyreactivity
QVQLVESGGGLVQAGGSLRLSCAASGIILTYYAMGWYRPAAGHERELVARISSSGGRTYYADSVKARFTISRDNAKNTLYLQMNSQKPEETAVYYCAAAIVSSGRNDYWGHGTQVTVSS | high polyreactivity
QVQLVESGGGLVQAGGSLRLSCAASGIILYPYAMGWYRQAPGKERELVAAISWSGGSTYYADSVKGRFTISRDNAKNTVYLQMNSLKPEDTAVYYCNARYYGPSWNSYDYWGQGTQVTVSS | high polyreactivity
QVQLVESGGGLVQAGGSLRLSCAASGIILYRNGMGWYRQAPGKERELVAAISWSTGSTYYADSVKGRFTISRDNAKYTVYLQMNSLKPEDTAVYYCATDYVGYSFGMYYWGQGTQVTVSS | low polyreactivity
QVQLVESGGGLVQAGGSLRLSCAASGIILYYYAMGWYRQAPGKERELVAAISSGGNTYYADSVKGRFTISRDNAKNTVYLQMYSLKPEDTAVYYCAAVTVIGGEYDYWGQGTQVTVSS | low polyreactivity
QVQLVESGGGLVQAGGSLRLSCAASGIISSFYAMGWYRQAPGKERELVAAINWSGDSTYYADSVKGRFTISRDNAKNTVYLQMNSLKPEDTAVYYCAADYYGFYDEHDYWGQGTKVTVSS | low polyreactivity
QVQLVESGGGLVQAGGSLRLSCAASGIIYDAYAMGWYRQAPGKERELVAAISSGGSTYYADSVKGRFTISRDNAKNTVSLQMNSLKPEDTAVYYCAAETEYPSWYDYWGQGTQVTVSS | low polyreactivity
QVQLVESGGGLVQAGGSLRLSCAASGIIYHFNDMGWYRQAPGQERELVASIDSTGSTNYADSVKGRFTLSRDNAKNTVYLQMNSLKPEDTAVYYCAVLNHRVDSVLTRYYYWGQGTQVTVSS | low polyreactivity
QVQLVESGGGLVQAGGSLRLSCAASGIIYVYAMGWYRQAPGKERELVAAITWSGGSTYYADSVKGRFTISRDNAKNTVYLQMNTLKPEDTAVYYCARGQGGEYDLDYDYWGQGTQVTVSS | low polyreactivity
QVQLVESGGGLVQAGGSLRLSCAASGIIYYANVMGWYRQAPGKERELVAGISRNGGRTYYADSVKGRFTISRDNAKNTVYLQMNSLKPEDTAVYYCAARGSYTSIFDYWGQGTQVTVSS | high polyreactivity
QVQLVESGGGLVQAGGSLRLSCAASGINFFGYAMGWYRQAPGKERELVAGISRSTGRTYYADSVKGRFTISRDNAKNTVYLQMNSLKQEDTSVYYCAARATRSLSRSMDYWGQGTQVTVSS | high polyreactivity
QVQLVESGGGLVQAGGSLRLSCAASGINFPGYAMGWYRQAPGKERELVAVIRKSGTSTYYADSVKGRFTISRDNAKNTVYLQMNSLKPEDTAVYYCAAGGPSTLDDYWGQGTQVTVSS | low polyreactivity
QVQLVESGGGLVQAGGSLRLSCAASGINFQNYAMGLYRQAPGKEREFVASISFSGASTYYADSVKGRFTISRDKAKNTVYLQMNSLKPDDTAVYYCAARYLYGPKYYYWGQGTQVTVSS | high polyreactivity
